± gives the standard deviation of the averaged measurements.
Assay: total protein half-life in vivo (active degradation + dilution); higher = more stable protein
[1] = E. coli NCM3722 delta-clpP delta-lon delta-hslV, growth: N-lim chemostat, doubling time 6 h
[2] = E. coli NCM3722 delta-clpP, growth: N-lim chemostat, doubling time 6 h
[3] = wild type E. coli NCM3722, growth: C-lim chemostat, doubling time 3 h
[4] = wild type E. coli NCM3722, growth: C-lim chemostat, doubling time 12 h
[5] = wild type E. coli NCM3722, growth: N-lim chemostat, doubling time 12 h
[6] = E. coli NCM3722 delta-hslV, growth: N-lim chemostat, doubling time 6 h
[7] = E. coli NCM3722 delta-lon, growth: N-lim chemostat, doubling time 6 h
[8] = E. coli NCM3722 delta-smpB, growth: N-lim chemostat, doubling time 6 h
[9] = wild type E. coli NCM3722, growth: C-lim chemostat, doubling time 6 h
[10] = wild type E. coli NCM3722, growth: N-lim chemostat, doubling time 6 h
[11] = wild type E. coli NCM3722, growth: P-lim chemostat, doubling time 6 h
[12] = wild type E. coli NCM3722, growth: P-lim chemostat, doubling time 12 h

## MKKAIAYMRFSSPGQMSGDSLNRQRRLIAEWLKVNSDYYLDTITYEDLGLSAFKGKHAQSGAFSEFLDAIEHGYILPGTTLLVESLDRLSREKVGEAIERLKLILNHGIDVITLCDNTVYNIDSLNEPYSLIKAILIAQRANEESEIKSSRVKLSWKKKRQDALESGTIMTASCPRWLSLDDKRTAFVPDPDRVKTIELIFKLRMERRSLNAIAKYLNDHAVKNFSGKESAWGPSVIEKLLANKALIGICVPSYRARGKGISEIAGYYPRVISDDLFYAVQEIRLAPFGISNSSKNPMLINLLRTVMKCEACGNTMIVHAVSGSLHGYYVCPMRRLHRCDRPSIKRDLVDYNIINELLFNCSKIQPVENKKDANETLELKIIELQMKINNLIVALSVAPEVTAIAEKIRLLDKELRRASVSLKTLKSKGVNSFSDFYAIDLTSKNGRELCRTLAYKTFEKIIINTDNKTCDIYFMNGIVFKHYPLMKVISAQQAISALKYMVDGEIYF
[1]
  total protein half-life in vivo: > 8 h
[2]
  total protein half-life in vivo: 1.49 h
[3]
  total protein half-life in vivo: 1.41 h
[4]
  total protein half-life in vivo: 1.97 h
[5]
  total protein half-life in vivo: 14 h

## MFDRYDAGEQAVLVHIYFTQDKDMEDLQEFESLVSSAGVEALQVITGSRKAPHPKYFVGEGKAVEIAEAVKATGASVVLFDHALSPAQERNLERLCECRVIDRTGLILDIFAQRARTHEGKLQVELAQLRHLATRLVRGWTHLERQKGGIGLRGPGETQLETDRRLLRNRIVQIQSRLERVEKQREQGRQSRIKADVPTVSLVGYTNAGKSTLFNRITEARVYAADQLFATLDPTLRRIDVADVGETVLADTVGFIRHLPHDLVAAFKATLQETRQATLLLHVIDAADVRVQENIEAVNTVLEEIDAHEIPTLLVMNKIDMLEDFEPRIDRDEENKPNRVWLSAQTGAGIPQLFQALTERLSGEVAQHTLRLPPQEGRLRSRFYQLQAIEKEWMEEDGSVSLQVRMPIVDWRRLCKQEPALIDYLI
[1]
  total protein half-life in vivo: 5.01 ± 0.4 h
[2]
  total protein half-life in vivo: 4.19 ± 0.56 h
[6]
  total protein half-life in vivo: 3.18 ± 0.019 h
[7]
  total protein half-life in vivo: 3.87 ± 0.12 h
[8]
  total protein half-life in vivo: 2.77 ± 0.12 h
[3]
  total protein half-life in vivo: 2.34 ± 0.078 h
[9]
  total protein half-life in vivo: 4.15 ± 0.4 h
[4]
  total protein half-life in vivo: 5.93 ± 0.57 h
[10]
  total protein half-life in vivo: 3.31 ± 0.19 h
[5]
  total protein half-life in vivo: 4.68 ± 0.19 h
[11]
  total protein half-life in vivo: 3.34 ± 0.12 h
[12]
  total protein half-life in vivo: 5.9 ± 0.61 h

## MKNSKAILQVPGTMKIISAEIPVPKEDEVLIKVEYVGICGSDVHGFESGPFIPPKDPNQEIGLGHECAGTVVAVGSRVRKFKPGDRVNIEPGVPCGHCRYCLEGKYNICPDVDFMATQPNYRGALTHYLCHPESFTYKLPDNMDTMEGALVEPAAVGMHAAMLADVKPGKKIIILGAGCIGLMTLQACKCLGATEIAVVDVLEKRLAMAEQLGATVVINGAKEDTIARCQQFTEDMGADIVFETAGSAVTVKQAPYLVMRGGKIMIVGTVPGDSAINFLKINREVTIQTVFRYANRYPVTIEAISSGRFDVKSMVTHIYDYRDVQQAFEESVNNKRDIIKGVIKISD
[1]
  total protein half-life in vivo: 4.54 h
[2]
  total protein half-life in vivo: 4.02 h
[6]
  total protein half-life in vivo: 2.93 h
[7]
  total protein half-life in vivo: 3.28 h
[8]
  total protein half-life in vivo: 3.59 ± 0.58 h
[3]
  total protein half-life in vivo: 2.63 ± 0.11 h
[9]
  total protein half-life in vivo: 4.65 ± 0.57 h
[4]
  total protein half-life in vivo: 8.14 ± 1.7 h
[10]
  total protein half-life in vivo: 3.39 ± 0.43 h
[5]
  total protein half-life in vivo: 5.18 ± 0.57 h
[11]
  total protein half-life in vivo: 4.95 ± 0.44 h
[12]
  total protein half-life in vivo: 9.79 ± 0.17 h

## MNLLIDNWIPVRPRNGGKVQIINLQSLYCSRDQWRLSLPRDDMELAALALLVCIGQIIAPAKDDVEFRHRIMNPLTEDEFQQLIAPWIDMFYLNHAEHPFMQTKGVKANDVTPMEKLLAGVSGATNCAFVNQPGQGEALCGGCTAIALFNQANQAPGFGGGFKSGLRGGTPVTTFVRGIDLRSTVLLNVLTLPRLQKQFPNESHTENQPTWIKPIKSNESIPASSIGFVRGLFWQPAHIELCDPIGIGKCSCCGQESNLRYTGFLKEKFTFTVNGLWPHPHSPCLVTVKKGEVEEKFLAFTTSAPSWTQISRVVVDKIIQNENGNRVAAVVNQFRNIAPQSPLELIMGGYRNNQASILERRHDVLMFNQGWQQYGNVINEIVTVGLGYKTALRKALYTFAEGFKNKDFKGAGVSVHETAERHFYRQSELLIPDVLANVNFSQADEVIADLRDKLHQLCEMLFNQSVAPYAHHPKLISTLALARATLYKHLRELKPQGGPSNG
[1]
  total protein half-life in vivo: 5.99 ± 0.51 h
[8]
  total protein half-life in vivo: 2.728 ± 0.0011 h
[9]
  total protein half-life in vivo: 3.27 h
[4]
  total protein half-life in vivo: 6.24 h
[11]
  total protein half-life in vivo: 2.97 h
[12]
  total protein half-life in vivo: 6.78 ± 1.8 h

## MKMVSRITAIGLAGVAICYLGLSGYVWYHDNKRSKQADVQASAVSENNKVLGFLREKGCDYCHTPSAELPAYYYIPGAKQLMDYDIKLGYKSFNLEAVRAALLADKPVSQSDLNKIEWVMQYETMPPTRYTALHWAGKVSDEERAEILAWIAKQRAEYYASNDTAPEHRNEPVQPIPQKLPTDAQKVALGFALYHDPRLSADSTISCAHCHALNAGGVDGRKTSIGVGGAVGPINAPTVFNSVFNVEQFWDGRAATLQDQAGGPPLNPIEMASKSWDEIIAKLEKDPQLKTQFLEVYPQGFSGENITDAIAEFEKTLITPDSPFDKWLRGDENALTAQQKKGYQLFKDNKCATCHGGIILGGRSFEPLGLKKDFNFGEITAADIGRMNVTKEERDKLRQKVPGLRNVALTAPYFHRGDVPTLDGAVKLMLRYQVGKELPQEDVDDIVAFLHSLNGVYTPYMQDKQ
[1]
  total protein half-life in vivo: > 8 h
[2]
  total protein half-life in vivo: 4.69 h
[6]
  total protein half-life in vivo: 5.53 h
[8]
  total protein half-life in vivo: 4.76 h
[3]
  total protein half-life in vivo: 3.28 ± 0.2 h
[9]
  total protein half-life in vivo: 5.27 ± 1 h
[4]
  total protein half-life in vivo: 12.2 h
[10]
  total protein half-life in vivo: 5.16 h
[5]
  total protein half-life in vivo: 10.8 h
[11]
  total protein half-life in vivo: 5.31 h
[12]
  total protein half-life in vivo: 11 ± 1.4 h

## MKKIWLALAGLVLAFSASAAQYEDGKQYTTLEKPVAGAPQVLEFFSFFCPHCYQFEEVLHISDNVKKKLPEGVKMTKYHVNFMGGDLGKDLTQAWAVAMALGVEDKVTVPLFEGVQKTQTIRSASDIRDVFINAGIKGEEYDAAWNSFVVKSLVAQQEKAAADVQLRGVPAMFVNGKYQLNPQGMDTSNMDVFVQQYADTVKYLSEKK [P0AEG4]
[1]
  total protein half-life in vivo: 5.32 ± 0.12 h
[2]
  total protein half-life in vivo: 5.05 ± 0.36 h
[6]
  total protein half-life in vivo: 6.08 ± 0.13 h
[7]
  total protein half-life in vivo: 6.83 ± 0.3 h
[8]
  total protein half-life in vivo: 6.24 ± 0.57 h
[3]
  total protein half-life in vivo: 3.03 ± 0.28 h
[9]
  total protein half-life in vivo: 5.32 ± 0.28 h
[4]
  total protein half-life in vivo: 8.77 ± 2.3 h
[10]
  total protein half-life in vivo: 5.73 ± 0.14 h
[5]
  total protein half-life in vivo: 11.62 ± 0.096 h
[11]
  total protein half-life in vivo: 5.665 ± 0.0088 h
[12]
  total protein half-life in vivo: 11.5 ± 1 h

## MAGESFILMGVSGSGKTLIGSKVAALLSAKFIDGDDLHPAKNIDKMSQGIPLSDEDRLPWLERLNDASYSLYKKNETGFIVCSSLKKQYRDILRKGSPHVHFLWLDGDYETILARMQRRAGHFMPVALLKSQFEALERPQADEQDIVRIDINHDIANVTEQCRQAVLAIRQNRICAKEGSASDQRCE
[1]
  total protein half-life in vivo: 4.25 h
[3]
  total protein half-life in vivo: 2.82 ± 0.78 h
[9]
  total protein half-life in vivo: 2.8 ± 0.43 h
[4]
  total protein half-life in vivo: 3.67 h
[10]
  total protein half-life in vivo: 1.6 h

## MQENQQITKKEQYNLNKLQKRLRRNVGEAIADFNMIEEGDRIMVCLSGGKDSYTMLEILRNLQQSAPINFSLVAVNLDQKQPGFPEHVLPEYLEKLGVEYKIVEENTYGIVKEKIPEGKTTCSLCSRLRRGILYRTATELGATKIALGHHRDDILQTLFLNMFYGGKMKGMPPKLMSDDGKHIVIRPLAYCREKDIQRFADAKAFPIIPCNLCGSQPNLQRQVIADMLRDWDKRYPGRIETMFSAMQNVVPSHLCDTNLFDFKGITHGSEVVNGGDLAFDREEIPLQPACWQPEEDENQLDELRLNVVEVK
[1]
  total protein half-life in vivo: 5.11 ± 0.8 h
[2]
  total protein half-life in vivo: 3.63 ± 0.23 h
[6]
  total protein half-life in vivo: 0.983 ± 0.28 h
[7]
  total protein half-life in vivo: 1.44 h
[8]
  total protein half-life in vivo: 1.0485 ± 0.00067 h
[3]
  total protein half-life in vivo: 1.63 ± 0.051 h
[9]
  total protein half-life in vivo: 2.26 ± 0.035 h
[4]
  total protein half-life in vivo: 2.85 ± 0.35 h
[10]
  total protein half-life in vivo: 1.26 h
[5]
  total protein half-life in vivo: 1.58 ± 0.57 h
[11]
  total protein half-life in vivo: 2.23 ± 0.24 h
[12]
  total protein half-life in vivo: 4.26 ± 0.73 h

Reference: the supplement of paper PMC11246515
